The values that follow come from paper PMC4900678, “The DEAD-box Protein Rok1 Orchestrates 40S and 60S Ribosome Assembly by Promoting the Release of Rrp5 from Pre-40S Ribosomes to Allow for 60S Maturation” (PLoS Biology, 2016).

Common to all, as to conditions: both partners purified
The target of test [1] is T1, full-length Rrp5 (recombinant) (S. cerevisiae, UniProt Q05022 1-1729).
T1 construct: Rrp5, S. cerevisiae, 193 kDa, 12 S1 domains followed by seven TPR repeats; The His6 tag is named only for the Has1 pull-down (His6-Rrp5, His-Rrp5); I take both to be the one Rrp5-FL preparation; also called Rrp5-FL; Rrp5_FL
T1 sequence (Q05022 whole entry, the tested form may be a part): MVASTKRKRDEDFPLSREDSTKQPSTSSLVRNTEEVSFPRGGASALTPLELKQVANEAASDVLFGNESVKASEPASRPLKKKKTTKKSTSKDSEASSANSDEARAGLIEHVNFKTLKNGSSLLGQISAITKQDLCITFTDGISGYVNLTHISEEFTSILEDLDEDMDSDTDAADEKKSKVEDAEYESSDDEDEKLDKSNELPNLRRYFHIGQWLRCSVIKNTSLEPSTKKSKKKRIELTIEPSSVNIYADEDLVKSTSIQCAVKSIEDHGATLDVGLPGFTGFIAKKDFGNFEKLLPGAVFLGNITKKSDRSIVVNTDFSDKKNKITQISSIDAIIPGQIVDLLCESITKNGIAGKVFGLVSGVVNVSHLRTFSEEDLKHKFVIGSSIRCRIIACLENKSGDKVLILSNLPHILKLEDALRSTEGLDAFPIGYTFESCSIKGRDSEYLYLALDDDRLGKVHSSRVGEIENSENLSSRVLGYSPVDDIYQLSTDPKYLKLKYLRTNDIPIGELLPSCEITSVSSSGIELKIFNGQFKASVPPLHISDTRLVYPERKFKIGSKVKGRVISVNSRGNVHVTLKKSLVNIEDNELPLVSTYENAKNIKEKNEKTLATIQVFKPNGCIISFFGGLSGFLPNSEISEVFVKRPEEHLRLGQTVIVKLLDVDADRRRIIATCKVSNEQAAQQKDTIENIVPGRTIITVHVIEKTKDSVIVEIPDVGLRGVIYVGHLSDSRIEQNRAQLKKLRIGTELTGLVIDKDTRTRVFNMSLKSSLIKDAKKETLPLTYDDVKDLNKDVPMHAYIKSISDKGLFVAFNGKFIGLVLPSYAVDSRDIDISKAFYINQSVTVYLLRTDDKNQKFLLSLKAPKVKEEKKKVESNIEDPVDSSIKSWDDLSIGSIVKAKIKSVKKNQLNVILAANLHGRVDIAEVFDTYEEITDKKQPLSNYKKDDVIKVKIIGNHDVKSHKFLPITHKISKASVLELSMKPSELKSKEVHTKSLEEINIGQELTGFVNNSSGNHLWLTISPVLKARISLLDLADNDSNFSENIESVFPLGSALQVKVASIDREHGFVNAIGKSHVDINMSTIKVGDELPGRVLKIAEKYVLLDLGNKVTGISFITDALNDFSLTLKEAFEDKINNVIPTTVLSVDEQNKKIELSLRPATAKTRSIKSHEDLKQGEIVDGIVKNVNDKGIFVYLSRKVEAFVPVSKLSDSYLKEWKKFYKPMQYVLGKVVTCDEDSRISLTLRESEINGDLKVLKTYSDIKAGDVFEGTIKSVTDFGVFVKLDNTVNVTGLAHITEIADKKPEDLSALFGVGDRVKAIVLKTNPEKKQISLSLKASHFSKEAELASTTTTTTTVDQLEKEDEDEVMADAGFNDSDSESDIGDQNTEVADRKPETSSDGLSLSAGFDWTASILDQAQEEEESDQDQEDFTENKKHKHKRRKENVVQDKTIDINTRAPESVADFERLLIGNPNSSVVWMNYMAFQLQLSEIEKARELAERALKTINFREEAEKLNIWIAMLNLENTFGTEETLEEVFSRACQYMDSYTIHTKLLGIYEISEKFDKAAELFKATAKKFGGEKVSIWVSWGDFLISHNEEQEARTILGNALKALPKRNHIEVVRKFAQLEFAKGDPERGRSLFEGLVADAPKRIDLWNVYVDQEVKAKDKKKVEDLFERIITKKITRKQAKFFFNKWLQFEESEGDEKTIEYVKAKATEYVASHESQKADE
The test can be described thus: negative-stain single-particle EM reconstruction; 100 pmol Rok1 incubated with Rrp5 in 300 mM NaCl, 10 mM MgCl2, 30 mM MES pH 6.7, 20°C, 2 h; GraFix glycerol/glutaraldehyde gradient; uranyl formate stain.

Test [2] addresses T1, full-length Rrp5 (recombinant). Put plainly: pull-down; 10 uM FL Rrp5 or Rrp5_TPR2+7 with 15 uM MBP-Rok1 (or MBP) on amylose resin; 150 mM NaCl, 30 mM HEPES/NaOH pH 7.5, 5% glycerol; 4°C; eluted with 20 mM maltose.
Test [3] has the same target. The test can be described thus: pull-down; 5 uM FL Rrp5 or Rrp5 fragments with 3 uM GST-Rok1 (or GST) on GSH sepharose; 150 mM NaCl, 30 mM HEPES/NaOH pH 7.5, 5% glycerol; 4°C; eluted with 20 mM reduced glutathione.
Test [4] shares this target. Put plainly: pull-down; 5 uM Has1 with 3 uM His-Rrp5 on Ni-NTA resin, pull-down buffer, 4°C; eluted with 300 mM imidazole.

B1: Rok1 (recombinant) (enzyme, S. cerevisiae, UniProt P45818 1-564, looked up)
chain: MDIFRVLTRGASVKKESGPKAKAADYSVINGNDENHKEDNNESQIVKELDFFRNKRIISKVEDDREKTTENDSPNKEEKSGNDDGLIKPVITNTVEASALRKSYKGNVSGIDIPLPIGSFEDLISRFSFDKRLLNNLIENGFTEPTPIQCECIPVALNNRDVLACGPTGSGKTLAFLIPLVQQIIDDKQTAGLKGLIISPTKELANQIFIECFKLSYKIFLEKKRPLQVALLSKSLGAKLKNKVVSDKKYDIIISTPLRLIDVVKNEALDLSKVKHLIFDEADKLFDKTFVEQSDDILSACREPSLRKAMFSATIPSNVEEIAQSIMMDPVRVIIGHKEAANTNIEQKLIFCGNEEGKLIAIRQLVQEGEFKPPIIIFLESITRAKALYHELMYDRINVDVIHAERTALQRDRIIERFKTGELWCLICTDVLARGIDFKGVNLVINYDVPGSSQAYVHRIGRTGRGGRSGKAITFYTKQDSVAIKPIINVMKQSGCEVSEWMDKMAKMTRKEKESIKNGKAHKERKQITTVPKMDKAKRRRQQEMIAASKRRKNEELSKKHFSK
notes: Rok1, DEAD-box protein, 64 kDa; Named Rok1 without a tag, in contrast to MBP-Rok1 and GST-Rok1; also called recombinant Rok1
Take B1: the binding result in test [1] is reported as “binds”.

B2: maltose binding protein (MBP)-tagged Rok1 (enzyme, S. cerevisiae, UniProt P45818 1-564, looked up)
chain: MDIFRVLTRGASVKKESGPKAKAADYSVINGNDENHKEDNNESQIVKELDFFRNKRIISKVEDDREKTTENDSPNKEEKSGNDDGLIKPVITNTVEASALRKSYKGNVSGIDIPLPIGSFEDLISRFSFDKRLLNNLIENGFTEPTPIQCECIPVALNNRDVLACGPTGSGKTLAFLIPLVQQIIDDKQTAGLKGLIISPTKELANQIFIECFKLSYKIFLEKKRPLQVALLSKSLGAKLKNKVVSDKKYDIIISTPLRLIDVVKNEALDLSKVKHLIFDEADKLFDKTFVEQSDDILSACREPSLRKAMFSATIPSNVEEIAQSIMMDPVRVIIGHKEAANTNIEQKLIFCGNEEGKLIAIRQLVQEGEFKPPIIIFLESITRAKALYHELMYDRINVDVIHAERTALQRDRIIERFKTGELWCLICTDVLARGIDFKGVNLVINYDVPGSSQAYVHRIGRTGRGGRSGKAITFYTKQDSVAIKPIINVMKQSGCEVSEWMDKMAKMTRKEKESIKNGKAHKERKQITTVPKMDKAKRRRQQEMIAASKRRKNEELSKKHFSK
notes: Rok1, DEAD-box protein; also called MBP-Rok1; source: E. coli Rosetta2 (DE3), recombinant; purification not described here
With B2, the binding result in test [2] is “binds”.

B3: glutathione S-transferase (GST)-tagged Rok1 (enzyme, S. cerevisiae, UniProt P45818 1-564, looked up)
chain: MDIFRVLTRGASVKKESGPKAKAADYSVINGNDENHKEDNNESQIVKELDFFRNKRIISKVEDDREKTTENDSPNKEEKSGNDDGLIKPVITNTVEASALRKSYKGNVSGIDIPLPIGSFEDLISRFSFDKRLLNNLIENGFTEPTPIQCECIPVALNNRDVLACGPTGSGKTLAFLIPLVQQIIDDKQTAGLKGLIISPTKELANQIFIECFKLSYKIFLEKKRPLQVALLSKSLGAKLKNKVVSDKKYDIIISTPLRLIDVVKNEALDLSKVKHLIFDEADKLFDKTFVEQSDDILSACREPSLRKAMFSATIPSNVEEIAQSIMMDPVRVIIGHKEAANTNIEQKLIFCGNEEGKLIAIRQLVQEGEFKPPIIIFLESITRAKALYHELMYDRINVDVIHAERTALQRDRIIERFKTGELWCLICTDVLARGIDFKGVNLVINYDVPGSSQAYVHRIGRTGRGGRSGKAITFYTKQDSVAIKPIINVMKQSGCEVSEWMDKMAKMTRKEKESIKNGKAHKERKQITTVPKMDKAKRRRQQEMIAASKRRKNEELSKKHFSK
notes: Rok1, DEAD-box protein; also called GST-Rok1; source: E. coli Rosetta2 (DE3), recombinant; purification not described here
In the case of B3, the binding result in test [3] was “binds”.

B4: Has1 (recombinant) (enzyme)
chain: not shown
notes: Has1, DEAD-box protein, HAS1 gene cloned from yeast into pSV272 as a TEV-cleavable His6-MBP fusion; also called recombinant Has1; source: E. coli Rosetta2 (DE3), purified (Ni-NTA, MonoS, Superdex S-200)
On to B4, for which the binding result in test [4] is “binds”.
